These are literature values, as cited in article PMC6359293.

Usually Kd stands for a measure of binding affinity in units of concentration.

One data set deals with hsp70 (Homo sapiens) (UniProt P0DMV8).
The target in data set [1] is Phosphoprotein XD XD (Measles morbillivirus) (UniProt P03422).
Chain of UniProt P03422 (P03422 457-507): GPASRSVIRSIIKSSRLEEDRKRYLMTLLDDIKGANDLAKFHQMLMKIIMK

Chain of UniProt P0DMV8 (P0DMV8 2-641): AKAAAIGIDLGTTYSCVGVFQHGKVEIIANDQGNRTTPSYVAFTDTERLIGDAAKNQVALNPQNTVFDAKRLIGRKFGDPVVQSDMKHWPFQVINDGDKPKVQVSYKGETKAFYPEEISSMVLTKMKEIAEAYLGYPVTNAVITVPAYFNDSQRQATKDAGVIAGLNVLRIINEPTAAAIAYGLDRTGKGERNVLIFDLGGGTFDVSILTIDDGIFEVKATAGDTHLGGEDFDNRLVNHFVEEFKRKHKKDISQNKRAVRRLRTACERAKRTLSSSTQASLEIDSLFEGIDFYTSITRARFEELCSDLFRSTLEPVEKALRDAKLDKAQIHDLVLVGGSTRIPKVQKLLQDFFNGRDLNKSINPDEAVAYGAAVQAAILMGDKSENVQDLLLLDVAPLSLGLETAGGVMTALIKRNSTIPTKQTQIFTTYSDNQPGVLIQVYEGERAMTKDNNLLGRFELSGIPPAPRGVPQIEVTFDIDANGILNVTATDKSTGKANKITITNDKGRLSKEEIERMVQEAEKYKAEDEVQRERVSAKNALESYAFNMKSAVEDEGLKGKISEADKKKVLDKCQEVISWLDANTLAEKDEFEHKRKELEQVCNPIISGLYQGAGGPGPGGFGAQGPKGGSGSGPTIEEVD

In the case of “Measles virus nucleoprotein NTAIL NTAIL (from UniProt P04851)”, the Kd with hsp70 (Homo sapiens) was 70 µM; in data set [1], 3000 nM.
